The target in the test is full-length human HSP90β (residues 1–724), pET15b construct (human) (UniProt P08238). Nature of the test: cross-linking + other: mass photometry; DSS (0.5 mM) or glutaraldehyde (0.03%) added to HSP90β (15 μM), AIPL1 (25 μM) or their mixture (HSP90_(AMPPNP)/AIPL1), 15 to 30 min at 25 °C, 25 mM Hepes pH 7.5, 200 mM NaCl, 5% glycerol, 1 mM TCEP; products on 3 to 8% Tris-acetate gel and by mass photometry.

Usually stoichiometry N stands for the number of molecules, sites or subunits per partner or assembly.

Sequence of full-length human HSP90β (residues 1–724), pET15b construct, P08238 1-724 (natural protein; other documents disagree on this pair) (P08238 whole entry, the tested form may be a part): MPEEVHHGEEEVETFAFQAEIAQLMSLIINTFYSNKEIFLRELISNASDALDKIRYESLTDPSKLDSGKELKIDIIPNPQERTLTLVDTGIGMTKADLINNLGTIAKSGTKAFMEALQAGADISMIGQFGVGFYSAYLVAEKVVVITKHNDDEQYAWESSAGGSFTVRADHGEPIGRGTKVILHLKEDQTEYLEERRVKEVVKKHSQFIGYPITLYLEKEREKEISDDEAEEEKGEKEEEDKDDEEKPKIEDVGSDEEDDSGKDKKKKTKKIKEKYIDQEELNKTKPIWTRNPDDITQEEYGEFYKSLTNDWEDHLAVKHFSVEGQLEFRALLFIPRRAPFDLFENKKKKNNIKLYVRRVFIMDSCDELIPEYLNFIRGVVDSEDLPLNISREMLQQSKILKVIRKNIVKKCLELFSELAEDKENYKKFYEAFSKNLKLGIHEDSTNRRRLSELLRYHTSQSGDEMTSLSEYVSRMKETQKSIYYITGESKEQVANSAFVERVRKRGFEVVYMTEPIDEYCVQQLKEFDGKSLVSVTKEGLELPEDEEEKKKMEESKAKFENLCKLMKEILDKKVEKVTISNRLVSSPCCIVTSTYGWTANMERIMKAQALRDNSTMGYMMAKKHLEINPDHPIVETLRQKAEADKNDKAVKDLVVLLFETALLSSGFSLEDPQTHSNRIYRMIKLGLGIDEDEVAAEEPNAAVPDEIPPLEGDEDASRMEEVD

For the substance “full-length human HSP90β (residues 1–724), pET15b construct, P08238 1-724 (natural protein; other documents disagree on this pair)”, the stoichiometry N is 2.

(Values after publication PMC8857470, “Molecular insights into the maturation of phosphodiesterase 6 by the specialized chaperone complex of HSP90 with AIPL1” (The Journal of Biological Chemistry, 2022).)
